Experimental data as given in the supplement of paper PMC9233669.
This sample holds only a part of the variants without activity.

How the values were obtained:
biotinyl-Met-oxazolone = assay: self-aminoacylation, catalytic enhancement (BMO) (fold over background); higher = more active; k-Seq, kA / k0A0; sequences stand for … in GGGAAUGGAUCCACAUCUACGAAUUC…UUCACUGCAGACUUGACGAAGCUG
Outline: (§1)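 The uncatalyzed rate is the low-activity peak of a bimodal Gaussian fit, and catalytic enhancement is median kA divided by it. The kA values came from pseudo-first-order fits, with 1000 bootstraps, of per-sequence fraction reacted measured by streptavidin capture, triplicate qPCR and Illumina sequencing. Mutagenized RNA pools with a 21-nt variable region (0.43 μM) were reacted with each biotinyl-aminoacyl-oxazolone at 2–1250 μM in 50 μL HEPES/NaCl/KCl/MgCl2/CaCl2 buffer with 5% acetonitrile, pH 6.9–7.0, for 90 minutes at room temperature.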

biotinyl-Phe-oxazolone = assay: self-aminoacylation, catalytic enhancement (BFO) (fold over background); higher = more active; k-Seq, kA / k0A0; sequences stand for … in GGGAAUGGAUCCACAUCUACGAAUUC…UUCACUGCAGACUUGACGAAGCUG
Outline: as §1

biotinyl-Leu-oxazolone = assay: self-aminoacylation, catalytic enhancement (BLO) (fold over background); higher = more active; k-Seq, kA / k0A0; sequences stand for … in GGGAAUGGAUCCACAUCUACGAAUUC…UUCACUGCAGACUUGACGAAGCUG
Outline: as §1

biotinyl-Ile-oxazolone = assay: self-aminoacylation, catalytic enhancement (BIO) (fold over background); higher = more active; k-Seq, kA / k0A0; sequences stand for … in GGGAAUGGAUCCACAUCUACGAAUUC…UUCACUGCAGACUUGACGAAGCUG
Outline: as §1

biotinyl-Trp-oxazolone = assay: self-aminoacylation, catalytic enhancement (BWO) (fold over background); higher = more active; k-Seq, kA / k0A0; sequences stand for … in GGGAAUGGAUCCACAUCUACGAAUUC…UUCACUGCAGACUUGACGAAGCUG
Outline: as §1

biotinyl-Val-oxazolone = assay: self-aminoacylation, catalytic enhancement (BVO) (fold over background); higher = more active; k-Seq, kA / k0A0; sequences stand for … in GGGAAUGGAUCCACAUCUACGAAUUC…UUCACUGCAGACUUGACGAAGCUG
Outline: as §1

| Sequence | self-aminoacylation (biotinyl-Met-oxazolone) | self-aminoacylation (biotinyl-Phe-oxazolone) | self-aminoacylation (biotinyl-Leu-oxazolone) | self-aminoacylation (biotinyl-Ile-oxazolone) | self-aminoacylation (biotinyl-Trp-oxazolone) | self-aminoacylation (biotinyl-Val-oxazolone) |
| --- | --- | --- | --- | --- | --- | --- |
| AAGUUUGCUAAAACUCGCAAG [Fam3.1 aminoacylation ribozyme variant] | 0.668 | 0.521 | 0.998 | 0.916 | 0.796 | 0.821 |
| AUUCACAUAGGUUAUCGGGUG [Fam2.2 aminoacylation ribozyme variant] | 5.32 | 40.2 | 6.69 | 3.23 | 5.37 | 3.67 |
| AUUCACCUAGUUAAUCGGGUG [Fam2.2 aminoacylation ribozyme variant] | 3.08 | 20 | 3.98 | 2.01 | 3.53 | 2.04 |
| AUACUUCAAACACUCGGUCUG [Fam1A.1 aminoacylation ribozyme variant] | 0.83 | 1.31 | 0.917 | 1.06 | 0.981 | 0.821 |
| CAACACUUCAAGCAAUCGGCC [Fam1B.1 aminoacylation ribozyme variant] | 2.64 | 4.12 | 2.45 | 2.57 | 3.87 | 2.58 |
| ACUCACCUAGCUCAUCGGGUG [Fam2.2 aminoacylation ribozyme variant] | 2.47 | 0.904 | 2.17 | 2.02 | 2.44 | 1.92 |
| CUACUUAAAACAAUGGGUCUG [Fam1A.1 aminoacylation ribozyme variant] | 1.28 | 0.9 | 1.03 | 1.05 | 0.653 | 1.05 |
| AUUACCCUGGUAAUCGCGUGA [Fam2.1 aminoacylation ribozyme variant] | 7.29 | 58.9 | 8.44 | 3.14 | 7.81 | 3.66 |
| CCACACUUCAAGAAAUCGGCC [Fam1B.1 aminoacylation ribozyme variant] | 1.97 | 3.48 | 1.78 | 1.96 | 3.06 | 2.16 |
| AUUCACCUAGGUCAUUGGCUG [Fam2.2 aminoacylation ribozyme variant] | 1.32 | 3.54 | 1.33 | 1.21 | 0.756 | 1.4 |
| CCACUUCAAGCAAUCGGUCUG [Fam1A.1 aminoacylation ribozyme variant] | 1.15 | 18.6 | 1.22 | 1.23 | 11.8 | 1.28 |
| AUUCACCUAGGCCAUCUGGUG [Fam2.2 aminoacylation ribozyme variant] | 2.74 | 13.2 | 3.29 | 1.54 | 2.35 | 2.05 |
| AAGUUUCCUGAUAGUCGCAAG [Fam3.1 aminoacylation ribozyme variant] | 1.69 | 3.33 | 1.69 | 1.67 | 1.49 | 1.54 |
| AAGUUAGCUAAUAUUCGCAAG [Fam3.1 aminoacylation ribozyme variant] | 1.43 | 2.26 | 1.33 | 1.78 | 1.59 | 1.39 |
| UUUACCCUGGACAUCGAGUGA [Fam2.1 aminoacylation ribozyme variant] | 4.86 | 14.9 | 4.69 | 2.68 | 5.78 | 3.1 |
| AUUACCCUGGUCAUCCAGCGA [Fam2.1 aminoacylation ribozyme variant] | 3.38 | 10.1 | 4.08 | 2.7 | 3.97 | 2.68 |
| AUAAGCCUGGUCAUCGAGUGA [Fam2.1 aminoacylation ribozyme variant] | 6.25 | 29.4 | 7.06 | 4.71 | 9.48 | 4.25 |
| CUACUUCAAUCAAUCGUUCUG [Fam1A.1 aminoacylation ribozyme variant] | 0.379 | 0.629 | 0.472 | 0.491 | 0.428 | 0.596 |
| AUUCACCUAGGUCACCGGCUG [Fam2.2 aminoacylation ribozyme variant] | 2.27 | 12.9 | 3.16 | 2.51 | 2.12 | 2.36 |
| AUUACACUGGUGAUCGAGUGA [Fam2.1 aminoacylation ribozyme variant] | 4.88 | 20.9 | 4.21 | 2.33 | 5.92 | 2.42 |
| AAGUUUGCUAAUAGACUCAAG [Fam3.1 aminoacylation ribozyme variant] | 0.332 | 0.758 | 0.313 | 0.416 | 0.449 | 0.427 |
